In experiment [1] the target is MOG-reactive B-cell receptor on B cells of anti-MOG transgenic mice. The experiment can be described thus: cell-based or functional assay.
For experiment [2] the target is unchanged. The experiment can be described thus: flow cytometry on splenocytes, goat-anti-human IgG FITC.

From patent US20060062780A1 come the findings set out here.

The substance MOG-Fc fusion protein came in with an ex vivo B cell depletion, splenocytes of anti-MOG transgenic mice, 10 µg/ml, 16 h in experiment [1] of 70%. In experiment [2], this substance came in with a percent of IgM-positive splenocytes that bound (% of IgM-positive splenocytes) greater than 90.
